The source of these data is patent US20090148510A1 (Stanford University, published 2009).

In test [1] the target is T1, purified β2AR having an amino terminal Flag epitope tag and a carboxyl hexahistidine tag (UniProt P07550 1-413).
T1 construct: also called β2 adrenoreceptor; denatured β2AR (when treated with SDS); not shown: carboxyl hexahistidine tag (six His)
Briefly: isothermal titration calorimetry, detergent-solubilized β2AR, 25° C. As to the method: ITC measurements were performed at 25° C. using a VP-ITC calorimeter (Microcal, Inc.). […] Titrations were initiated with a 3 μl injection, followed by a series of 8 μl injections (37 β₂AR and 31 for β₂AR buffer blank), with 240 s between injections. After subtracting the blank titration, the measured heat released upon binding was plotted against the Fab:β₂AR molar ratio, and the data were fitted to a single-site binding model to obtain the association constant Ka, enthalpy change ΔH, and stoichiometry n using the Origin software package¹ (Microcal, Inc.)
Background: ITC needs no label: the signal is the heat of the interaction.

Test [2] has as its target T2, β2AR labeled at C265 with tetramethylrhodamine (UniProt P07550 1-413, tetramethylrhodamine on C265).
T2 construct: Detergent-solubilized (0.1% dodecylmaltoside) purified receptor; also called β2AR-TMR
Briefly: antibody dose-response on fluorescence of β2AR-TMR (labeled at C265), 4 nM receptor.

B1: Fab 5 (Fab fragment of antibody 5) (Fab, V domains shown)
VH: EVQLQQSGAELARPGASVKLSCKASGYIFTDYYINWVRQRTGQGFEWIGEIYPGSGNIDYNERFKDKATLTADKSSSTAYMQLSSLTSEDSAVYFCVRGFGYWGQGTTLTVSS
VL: DIKMTQSPSSMYASLGERVTITCKASQDINSYLSWFQQKPGKSPKTLIYRANRLVDGVPSRFIGTGSGQDYSLTISSLDYEDMGIYYCLQYDEFPYTFGGGTKLEIKR
notes: Made by papain cleavage of purified mouse antibody 5 and purified by ion exchange (Mono Q) chromatography; also called Fab5 antibody; Fab 5 fragments
B1 had a dissociation constant (Kd) in test [1] of 150 nM.

B2: antibody 5 (intact mouse monoclonal antibody) (antibody, V domains shown)
VH: B1 VH
VL: B1 VL
notes: Mouse IgG from hybridoma; also called Mab5; Mab5 IgG
B2: the half-maximal effective concentration (EC50) in test [2] turned out to be 23 nM.

Broadly, the Kd is a measure of binding affinity in units of concentration. Low readings indicate tighter binding, high ones weaker binding. As a reminder, the EC50 is the concentration needed to bring the measured effect to its halfway point. A low value points to higher potency in that assay.
